Molecular target: T1, CIITA (expressed from the CIITA expression vector pCMV.CIITA) (UniProt P33076 1-1130)
T1 sequence (looked up): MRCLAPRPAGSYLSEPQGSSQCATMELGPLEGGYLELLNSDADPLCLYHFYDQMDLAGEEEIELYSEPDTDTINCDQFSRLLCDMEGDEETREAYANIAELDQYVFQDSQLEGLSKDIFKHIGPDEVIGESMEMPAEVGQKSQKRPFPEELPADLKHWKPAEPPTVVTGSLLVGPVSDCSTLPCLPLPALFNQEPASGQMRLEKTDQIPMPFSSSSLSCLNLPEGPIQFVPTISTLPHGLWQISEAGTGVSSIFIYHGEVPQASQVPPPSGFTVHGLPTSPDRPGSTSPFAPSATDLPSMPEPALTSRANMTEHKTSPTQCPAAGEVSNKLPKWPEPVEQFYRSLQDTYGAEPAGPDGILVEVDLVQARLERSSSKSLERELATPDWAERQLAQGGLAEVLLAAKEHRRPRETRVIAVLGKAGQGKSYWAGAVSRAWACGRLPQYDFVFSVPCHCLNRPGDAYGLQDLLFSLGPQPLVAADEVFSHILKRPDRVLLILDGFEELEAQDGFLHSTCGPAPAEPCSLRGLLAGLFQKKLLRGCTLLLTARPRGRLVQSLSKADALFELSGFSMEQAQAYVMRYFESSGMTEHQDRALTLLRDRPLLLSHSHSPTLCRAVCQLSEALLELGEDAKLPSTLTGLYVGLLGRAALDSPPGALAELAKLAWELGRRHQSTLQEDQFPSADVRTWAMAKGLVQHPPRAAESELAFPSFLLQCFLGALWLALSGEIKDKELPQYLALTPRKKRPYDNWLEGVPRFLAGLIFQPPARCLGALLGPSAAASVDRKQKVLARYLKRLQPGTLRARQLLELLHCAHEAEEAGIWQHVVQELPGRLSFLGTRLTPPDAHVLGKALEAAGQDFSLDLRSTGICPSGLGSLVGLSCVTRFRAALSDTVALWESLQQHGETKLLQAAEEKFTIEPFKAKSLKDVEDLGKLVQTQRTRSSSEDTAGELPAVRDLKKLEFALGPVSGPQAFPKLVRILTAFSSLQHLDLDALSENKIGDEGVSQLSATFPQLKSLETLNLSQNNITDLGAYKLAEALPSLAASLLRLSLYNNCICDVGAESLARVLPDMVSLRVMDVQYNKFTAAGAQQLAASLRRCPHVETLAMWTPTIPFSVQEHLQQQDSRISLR
Test: cell-based or functional assay

B1: CIITA-Interacting Protein 104 (CIP104) (other)
chain: MKMLDESIRKEEEQQQHEAGVAPQPPLKEPFASLQSPFPTDTAPTTTAPAVAVTTTTTTTTTTTATQEEEKKPPPALPPPPPLAKFPPPSQPQPPPPPPPSPASLLKSLASVLEGQKYCYRGTGAAVSTRPGPLPTTQYSPGPPSGATALPPTSAAPSAQGSPQPSASSSSQFSTSGGPWARERRAGEEPVPGPMTPTQPPPPLSLPPARSESEVLEEISRACETLVERVGRSATDPADPVDTAEPADSGTERLLPPAQAKEEAGGVAAVSGSCKRRQKEHQKEHRRHRRACKDSVGRRPREGRAKAKAKVPKEKSRRVLGNLDLQSEEIQGREKSRPDLGGASKAKPPTAPAPPSAPAPSAQPTPPSASVPGKKAREEAPGPPGVSRADMLKLRSLSEGPPKELKIRLIKVESGDKETFIASEVEERRLRMADLTISHCAADVVRASRNAKVKGKFRESYLSPAQSVKPKINTEEKLPREKLNPPTPSIYLESKRDAFSPVLLQFCTDPRNPITVIRGLAGSLRLNLGLFSTKTLVEASGEHTVEVRTQVQQPSDENWDLTGTRQIWPCESSRSHTTIAKYAQYQASSFQESLQEEKESEDEESEEPDSTTGTPPSSAPDPKNHHIIKFGTNIDLSDAKRWKPQLQELLKLPAFMRVTSTGNMLSHVGHTILGMNTVQLYMKVPGSRTPGHQENNNFWSVNINIGPGDCEWFAVHEHYWETIRAFCDRHGVDYLTGSWWPILDDLYASNIPVYRFVQRPGDLVWINAGTVHWVQATGWCNNIAWNVGPLTAYQYQLALERYEWNEVKNVKSIVPMIHVSWNVARTVKISDPDLFKMIKFCLLQSMKHCQVQRESLVRAGKKIAYQGRVKDEPAYYCNDCDVEVFNILFVTSENGSRNTYLVHCEGCARRRSAGLQGVVVLEQYRTEELAQAYDAFTLAPASTSR
CIITA-mediated DRα-CAT expression (DRα promoter CAT reporter in cotransfected cells): ~30 fold

— US20020019514A1 (Harvard, published 2002)
